In PMC10457330, “Structural basis for the allosteric modulation of rhodopsin by nanobody binding to its extracellular domain” (Nature Communications, 2023):

Columns and labels:
[1] = target: photoactivated bovine rhodopsin (Bos taurus (native, rod outer segments), UniProt P02699, all-trans-retinylidene chromophore after photoisomerization; N-linked glycans at Asn2 and Asn15)
[2] = target: ground-state bovine rhodopsin (native, from rod outer segments) (bovine, UniProt P02699, 11-cis-retinylidene chromophore (Schiff base at Lys296); N-linked glycans at Asn2 and Asn15)
ground-state bovine rhodopsin (native, from rod outer segments), sequence (P02699 whole entry): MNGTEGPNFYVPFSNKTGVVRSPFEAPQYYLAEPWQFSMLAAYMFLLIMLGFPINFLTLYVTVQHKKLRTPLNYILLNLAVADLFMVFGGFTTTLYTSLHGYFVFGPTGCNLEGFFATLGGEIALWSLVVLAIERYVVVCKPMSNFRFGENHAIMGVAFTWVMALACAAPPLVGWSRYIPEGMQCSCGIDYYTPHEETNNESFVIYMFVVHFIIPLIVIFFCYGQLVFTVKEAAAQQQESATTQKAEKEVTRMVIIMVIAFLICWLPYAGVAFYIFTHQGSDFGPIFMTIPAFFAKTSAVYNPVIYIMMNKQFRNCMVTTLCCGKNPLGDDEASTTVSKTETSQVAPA

photoactivated bovine rhodopsin, sequence (P02699 whole entry): as above

binding result [1]	binding result [2]	Binder
binds	binds	Nb12 (VHH) VHH: QVQLVESGGGLVQPGGSLRLSCAASGFTFNRYVMNWVRQAPGKGLEWVSGISRDGSYTDYADSVKGRFTISRDNAKDTLYLQMNSLKPEDTAVYYCSKYNSVVTTPPGQGTQVTVSS
binds	binds	Nb22 (VHH) VHH: QVQLVESGGGLVQAGGSLRLSCTASGNSFTFYTMGWYRQAPGKQRELVASITHRDSTNYADSMKDRFTISRDNSKNTVYLQMNSLKAEDTAVYYCNLHGRTRLLGREYDYWGQGTQVTVSS
